The DeepSol protein solubility set

Experiment: soluble on expression in E. coli; label from the status in PepcDB or PDB records

| Sequence | soluble on expression in E. coli |
| --- | --- |
| MGHHHHHHSHMNFAGKHVGFGLTGSHCTYHEVLPQMERLVELGAKVTPFVTHTVQTTDTKFGESSEWINKIKQITEEPIVDSMVKAEPFGPKTPLDCMVIAPMTGNSTSKFANAMTDSPVLMGAKATLRNGKPVVVGISTNDALGLNGINIMRLMATKNIYFIPFGQDNPQVKPNSLVARMEALPETIEAALRGQQYQPVLIEKFRD | soluble |
| MGHHHHHHSHMNIFIMRHGEAEVMANSDKARHLTVYGSKQAFLQGQWLKQHLSTLVINSLDRILVSPYVRAQETFHQVNQAFDLELENKFEIWEGITPYGHAHSVIDYLEVLKDEGVKSVLIVSHLPLVGEIVAELYGKRNPISFYPATIAQLLWDGNKSEILMHQASPVIYLK | not soluble |
| MGHHHHHHSHMNKHQKPVLTGQRFKTRKRDEKEKFEPTVFRDTLVQGLNEAGDDLEAVAKFLDSTGSRLDYRRYADTLFDILVAGSMLAPGGTRIDDGDKTKMTNHCVFSANEDHETIRNYAQVFNKLIRRYKYLEKAFEDEMKKLLLFLKAFSETEQTKLAMLSGILLGNGTLPATILTSLFTDSLVKEGNEAPVFSPVRQQKKNKVTDS | not soluble |
| MGHHHHHHSHMPADRSIWQESCPVSFSALKKWIFLPNSTKIKEKRSSFPVRGPLTFDGWYPRDHKPSAPPTNEEERRAAAVKYGLRPEDYQSMDKDDVIKFAGDYPDLGVITYDHKDPYEAWTDRQNRRNWGELVPIDMMRYRGDRLTFTGLEAEDYTTWNSIVMCLRVLVPMALLAWYFTNEHPNALRWKNPAMPKQYSYDFYRAYPFDDPRKYPIVNYSFDLE | not soluble |
| MGHHHHHHSHMPPYPANSVFCKDKVSLCCQVGPDFLGSSAPFSASHSAGITGMSHYAQPVFCSLNKGRTVW | not soluble |
| MGHHHHHHSHMRCQESMSAVLTAEQALKLVGEMFVYHMPFNRALGLELERYEKAFAQLAFNNQPMMVGNWAQSILHGGVIASALDVAAGLVCVGSTLTRHETISEDELRQRLSRMGTIDLRVDYLRPGRGNRFTATSSLLRAGNKVAVARVELHNEDQLYIASATATYMVG | not soluble |
| MGHHHHHHSHMRKLTALFVASTLAMGAANLAHAAETTTAAPADAKPMMQHKGKFGPHHDMMFKNLNLTDAQKQQIRDIMKAQREQMKRPLLEERRAMHDIIASDTFDKAKAEAQITKMEAQRKANMLAHMETQNKIYNVLTPEQKKQYNANFEKRLTERPAQEGKMPAAAE | soluble |
| MGHHHHHHSHMRKTLIALMFATALPAIAMAAPPAPPAGAPDADAPGMHMQRGDRGPGMHRGPGPLKELDLTREQRQQIDRLMREQMHERREITQNYLEKMPAADQKAMRDEIEAKRSKTDSEVRALLKPDQQKQFDEIKKKEDERRAEWAEFKAWKAAKTAKAQ | soluble |
| MGHHHHHHSHMSERSVSKRTEQKRWYTVQAPEQFDREVLGKTPAEEPDKVLGRTIETTLGELTNDASENNTKLTFKINEVASDSAYTEFIRHELTRDYLRSLVRRGSSKVEAYITVLTTDDYRVQIQPVAVTTKKADASQEKAIRRTMIDLVRETAEDHTFEQLIDSVVEGRLSSAIYGEAKDIYPLRRVEIKKTTLEARPEEVAAEEETAVDVDEEDVDVEA | soluble |
| MGHHHHHHSHMSHIFDASVLAPHIPSNLPDNFKVRPLAKDDFSKGYVDLLSQLTSVGNLDQEAFEKRFEAMRTSVPNYHIVVIEDSNSQKVVASASLVVEMKFIHGAGSRGRVEDVVVDTEMRRQKLGAVLLKTLVSLGKSLGVYKISLECVPELLPFYSQFGFQDDCNFMTQRF | not soluble |
| MGHHHHHHSHMSVHKLTDLRDNSTNWKINVKILSIWNHPPNSHGEITTMILHDDKNNRVDATIPQGNYHNPFCPFLKPGTWIHISDFRVVVPQSRVRYSSFRFHIKFIWETSVHPLPELVKRDFFD | not soluble |
| MGHHHHHHSHMSWLKEVIGTEKAVIAMCHLRALPGDPGFDTRKGMNWVIDRAHDDLMALQNGGVDAVMFSNEFSLPYLTKVRPETTAAMARIIGQLMSEIRVPFGVNVLWDPVASFDLAMATDAKFIREIFTGAYASDFGVWDTNVGETIRHQHRIGAGHVKTLFNIVPEAAVYLGNRDVCSIAKSTVFNNNPDALCVSGLTAGARTDSAILKRVKETVPDTVVLANTGVCLENVEEQLCIADGCVTATTFKKDGVFANFVDQARVAKFMEKVRHIRQ | soluble |
| MGHHHHHHSHNTTKPKSLAVKKAKWHLGIRSQSKPYDIMAEVYRAMKQLDFEWKVVNAYHLRVRRKNPVTGNYVKMSLQLYLVDNRSYLLDFKSIDDEVVEQRSGS | not soluble |
| MGHHHHHHSHQETQLSSKVVQKLVLPFGRLNYLPLEQQFMPCLERILAREAGVAPLATVNILMSLCQLRCLPFRALHFVFSPGFINYISGTPHALIVRRYLSLLDTAVELELPGYRGPRLPRRQQVPIFPQPLITDRARCKYSHKDIVAEGLRQLLGEEKYRQDLTVPPGYCTDFLLCASSSGAVLPVRTQDPFLP | not soluble |
| MGHHHHHHSHSSVTIGRFQSVRYDVNLEKAKELGIPVVRRITGGGSVFHDEYGEITYSVVISEDYHPMLKNIQDSYRFLAGPLVDALKDLGIEAEFSGLNDIVVRGKKISGSAQTRRRGIILQHGTLMYATRLEI | not soluble |
| MGHHHHHHSHTVCSLSSGKFGTLLSGSWDTTAKVWLNDKCMMTLQGHTAAVWAVKILPEQGLMLTGSADKTVKLWKAGRCERTFSGHEDCVRGLAILSETEFLSCANDASIRRWQITGECLEVYYGHTNYIYSISVFPNCRDFVTTAEDRSLRIWKHGECAQTIRLPAQSIWCCCVLDNGDIVVGASDGIIRVFTESEDRTASAEEIKAFEKELSHATIDSKTGDLGDINAEQLPGREHLNEPGTREGQTRLIRDGEKVEAYQWSVSEGRWIKIGDVVGS | not soluble |
| MGHHHHHHSHVLLFVYGEPVTRPHSGPAVYFWRHRKQADLDLARGDFAQAAQQLWLALRALGRPLPTSHLDLACSLLWNLIRHLLQRLWVGRWLAGRAGGLQQDCALRVDASASARDAALVYHKLHQLHTMGKHTGGHLTATNLALSALNLAECAGDAVSVATLAEIYVAAALRVKTSLPRALHFLTRFFLSSARQACLAQSGSVPPAMQWLCHPVGHRFFVDGDWSVLSTPWESLYSLAGNPVDPLAQVTQLFREHLLERALNCVTQPNPSPGSADGDKEFSDALGYLQLLNSCSDAAGAPAYSFSISSSMATTTGVDPVAKWWASLTAVVIHWLRRDEEAAERLCPLVEHLPRVLQESERPLPRAALHSFKAARALLGCAKAESGPASLTICEKASGYLQDSLATTPASSSIDKAVQLFLCDLLLVVRTSLWRQQQPPAP | not soluble |
| MGHSQSYDLRNPEGGEKTPVRGVRRVSREHQTDAQFSTETAEPFDFREDELRDRIRREQLRKREVELETLRIRQHESREPIIDAYRQNQPAPQGNLYNEFNHYDSMKHASPSDPATYFALKPMTEVNEGRQFSIPTSSTRRYDQVPIDPSPELQRREVPSKQSPPNYPKRSSVFGGRVSPLPRQSEVDPHPMPRYIPPMSPSNPIDDVPPTHVSELHAEKRMIVGIDDELQPEKNNVTYVTVATAAIDNELLHRHPEVGRHPVYVLPAQTSYGASAKRRSSDDEAKNVLPPQNCTVEHCTHVAVNDGSPVVIRKRASQDSIRDKENRLTIPINEDDTENVGEGTNYQNVSKKCFEERLHYDSYMPTLSLRQRPVVSFYDKLH | not soluble |
| MGIGSKILENNIQKSISLGFYHSHSELRKSFYEFFKSKNHEILRSSSVIPDENDGTLLFTNAGMNQFKPLILSSTESRRVANIQKCIRAGGKHNDLDDVGKDLHHQTFFEMMGNWSFNDAFSKEEACRYAWEYLVEILGINADRLYVSYFGGIEKLGLPEDRECREIWKRIGVSSNRILPFVAENFWEMGAAGPCGPCTEIHYDRIGGRDASRLVNIDDSVVEIWNIVFMSSVRDSCGQIRHLGKNHIDTGMGFERLLSVVQNKTSNFDTDVFTPILEKTSELAKKQYTGSLDSRQDATFRLVADHIRAATVAISDGAVPDGTGCGFIVRKMMRRAFLQGISKLGIERYAMSELVPVVASTMKEVYPEIHDTSTHIRKIFNDEEAQFWKTVDKAKKMFDSVAAESKSPIISGRKAFNLFETHGLPLAVTVELARNIGREVDETEFERCRLEAQKVSQKASQFKLPISADDFPSHSDKEKYSYVFRNGKYEFPQVKTRILQVYKDQQKAESLEANDRGFLVLEECQFYGEQGGQTSDTGHLLIDGREVFEVENAKKIAGGAVTVLFGRALLPIRRDLRVEQKLDETRREGVMRAHSATHLLNWALQKLGVGSGQKGSSVDCDRFRFDYSTGDEDLSKEQRTELLIKCEMKMREFIQNGGFTEIIETSLEEAKKIENLQSDVKEDRIGGASVRVVALGSGADVPVECCSGTHIHDVRVIDDVAIMSDKSMGQRLRRIIVLTGKEAAACRNYTKSIYEDLRSTDPKERSKTGKNIDWKRVPIADQARISILLKQKK | not soluble |
| MGILKSLFTLGKSFISQAEESIEETQGVRMLEQHIRDAKAELDKAGKSRVDLLARVKLSHDKLKDLRERKASLEARALEALSKNVNPSLINEVAEEIARLENLITAEEQVLSNLEVSRDGVEKAVTATAQRIAQFEQQMEVVKATEAMQRAQQAVTTSTVGASSSVSTAAESLKRLQTRQAERQARLDAAAQLEKVADGRDLDEKLAEAGIGGSNKSSAQDVLARLQRQQGELEHHHHHH | not soluble |
| MGISPDAASKLYTVKFQPDPIDKKGWSVIDFNNCCTQDGGWYLNMGWGVESLIDNNPGTQWLCRWDVKEPLPYYFVFDMGKEYTLFRFGFANPVAPAAHVWAGTSKAGYVEASIDNENWVKLKDWTSPKIGEPNVNMDVPATQARYIRFVITDTYPTYDGLRVSLGEVYAWGLEHHHHHH | soluble |
| MGKGAMNRRDFLKVGGMSTLALTLGSTGLFSLEGQAKNSSNPTSGFGGFGPLVKDPNGILDLPKGFKYKILSRTGDRMTNGDLVPSMHDGMAAFQGPRNTTILVRNHENGTNADYPVNGKNPWSKGAAGGTTALVVGPNREVIREYVTNSGNIRNCAGGPSTWGTWLTCEETRDMGHGFVFEVNPHEPENEMSKTPIRDMGYFSHEACNVDPSTGIWYLTEDNSPSFFYRFTPHDRSQTLGSLQKGGILEAAAIDELPHNQASNFTSGQKIGIVWKKVNPERAKEDARDLGCIRFSRLEGSWFAGGAFWFDDTNAGEKNLGRIYRYFPATNTLELFYESSDHNDLEMPDNITITPWGDLWIAEDGNIGRDRMIGLTPEGNVYTFAENRLNNSEFAGPAFSPDGKTFYLNMQTPGITFAIWGPFARRNAARQVAMSHAAPPPGYGPQVSDKLADYAERHGMSPLAAAALERHGFIVLEHHHHHH | not soluble |
| MGKKKSDTASGGAIPEGDNEKGKKIFKQRCEQCHVVNSLQTKTGPTLNGVIGRQSGQVAGFDYSAANKNKGVVWDRQTLFDYLADPKKYIPGTKMVFAGLKKADERADLIKFIEVEAAKKPSA | not soluble |
